Test results as given in a protein production outcome set (Wang et al. 2014).

Assay: label from the status in PepcDB records
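Further: failed if final PepcDB status was selected cloned or expressed and not failed if soluble or beyond.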

In the case of “MLMEIRESVKERIEEIIKEIAPQWEGEIELKETPDPKLGDFGTPIAFKLAKLLKRPPIEIAEKIVEKLKLNLPEGIKDVKAVNGYINVFIDYPHFARILINDILAKGDRFGSSEIGKGKKVIVEHTSVNPTKPLHMGHARNAILGDVMARILRFLGYEVEVQNYIDDLGIQFAQVYWGYLRLKEEFERIMNELRERGLKDNPIDHALGLLYVEVNRRLEDNPELENEIRDIMKKLESGELYGRKLAEEVVRAQMVTTYKLGVKYDLLVWESDIVRRKLFEIALELLSKNENFYIPSDGKYRGAFVMDLRKLFPDMKNPILVLRRSDGTATYTGKDIAYHLWKFGKIDVDLLYKEWDSTTWTTAPDGKSMPNKFGNANIVINVIGAEQKHPQLAIKYALQLLGFEDAAANLYHLAYEHVERPEGKFSGRKGTWVGFTVDEVIQEAVKRARELIEEKNPALSDEEKAEVAEKVGIGAIRYNLIKYSPDKKIIFRWEDVLNFEGESAPYIQYAHARCSSILRKAEEEGIKVDPETLFKNADFTKLSERERELVIMLSKFPRIVEQAGKDVKPHLIAWFANELASLFNKFYMDHPVLKAEEGVREARLLLVMAVEQVLKNALYLMGIEAPERM”, the protein production is reported as “not failed”.
In the case of “MFSAKKLSPADKLKNISSMLEEIVEDTTVPRNIRAAADNAKNALHNEEQELIVRSATAIQYLDDISEDPNMPIHTRTQIWGIVSELETIKN”, the protein production is reported as “not failed”.
With “MSMSAQGKKAAESTTSTRPAKLDKQAYEAELKRLQAELVDMQQWVVETGARVVIIMEGRDAAGKGSAIKRMTQYLNPRTCRIEALPAPNSREQGQWYFQRYVEKLPTAGEIVIFDRSWYNRAGVERVMGFCTSQEYRRFLHQAPIFERLLVEDGIMLRKYWFSVSDEEQIARFKSRRNDPLRRWKLSPMDLQSITRWEDYSRAKDEMFVHTDIPSAPWYTVESEDKKRSRINVISHLLSTIPYEKIDRP” the protein production was “failed”.
For “MQGQEDEVVLVEGPTLPETPRLFPLKIRCRADLVRLPLRMSEPLQSVVDHMATHLGVSPSRILLLFGETELSPTATPRTLKLGVADIIDCVVLTSS”, the protein production was “not failed”.
With “MQGTKIRLMVGGLLLAAASNNVQAEALQPDPAWQQGKLDNGFSWQLLATPQRPSDRIELRLIVNTGSLSENTQEVGFAHLLPRLALMSSASFTPAQLQSLWQQGIDNERPLPPAITSYDFTLYSLSLPNNRPDLLKDALAWLSDTAGNLAVSEQTVNAALNTATDPIATFPQNIQEPWWRYRLKGSSLIGHDPGQPVTQPVDVEKLKQFYQQWYTPDAMTLYVVGNVDSRSIAAQISKAFSELKGKRTAPAAVATLAPLPPEPVSLMNEQAAQDTLSLMWDTPWHPIQDSMALSRYWRSDLAREALFWHIKQVLEKNNQKNLKLGFDCRVQYQRAQCAIHLNTPVENLTANMTFVARELAALRANGLSQAEFDALMTQKNDQLSKLFATYARTDTDILMSQRLRSQQSGVVDIAPEQYQKLRQAFLSGLTLAELNRELKQQLSQDTTLVLMQPKGEPEVNVKALQEIYNGIMAPQTVAEEEVAPAEAVETAPVMPTTAQ” the protein production was “failed”.
For “MSWKIIEKYRRILAQEEGNSPKRRGGKLTVCLVYPNRYGVAMSNLGFQAVHALLNAESDILCERAFLPDPDDLREYRRSGARLLSLESQEPLSSFDIIAFSVSFESDYLNIPVIFDLAGIPALAAERTGSHPLVMGGGAALFLNPEPVADFLDLIVVGEGEAILPTFLDHIRADGIGDRAMFLAGVAGLPGIYVPSLYATEYDGARLVSREAKDGAPEQVKRIWMAEPDGRATVSEILTPGTEFSDMYLVEVSRGCGRGCRFCAAGFIYHPYRQRSLDAVKAAVAEGLSHRRKIGLVGAAVSDFREIGELCRHILAEGGTVSVSSLRIDRLDEGMIEVLKASGHKTVALAPEGGSQRIRDLINKNLTEEQILAACDLLIGHDILNLKLYFIIGLPTETMDDLEEMALLVEKIRKRVIAAARKNKRLGEIILSVNPFVPKPFTPFQWCGMEDTPSLEKKLKYLQQTVGRLSNVRLIAESPKDAWLQALLSRGDRRLSGFLLRAAELGNWKRAAREFPVDTDFLVHRTIPLDEMLPWDVIASADAERLRREYLKATPPRLEHHHHHH”, the protein production was “failed”.
For “MSQHLFTAFILTALAGLSTGIGSLIAFVTKHTNKTFLSVSLGFSAGVMIYVSMIEIFPTAQTILTKAMDKKSGSWLTVLAFFGGILLIAIIDKLIPSEENPHEIKTIEEEDQKPTKLMRMGLMTAIAIGIHNFPEGLATFISGLQDASIAIPIVIAIAIHNIPEGIAVSVPIYQATGSKKKAFTYSFLSGLAEPLGAIIGWFLLMPIMNNIVYGAIFSAVAGIMVFISLDELLPAAEEYGKHHLAIYGVISGMLIMAVSLLLFI”, the protein production was “failed”.
For “MMTKYGVVGTGYFGAELARFMSKVEGAKITAIYDPVNAAPIAKELNCVATATMEALCSHPDVDCVIIASPNYLHKAPVIAAAKAGKHVFCEKPIALNYQDCKDMVDACKEAGVTFMAGHVMNFFHGVRHAKALIKAGEIGEVTQVHTKRNGFEDVQDEISWKKIRAKSGGHLYHHIHELDCTLFIMDETPSLVSMAAGNVAHKGEKFGDEDDVVLITLEFESGRFATLQWGSSFHYPEHYVLIEGTTGAILIDMQNTAGYLIKAGKKTHFLVHESQAEDDDRRNGNISSEMDGAIAYGKPGKRTPMWLSSIMKLEMQYLHDVINGLEPGEEFAKLLTGEALEHHHHHH”, the protein production was “failed”.
With “MDSGTINIKKWVVIYPVYINSKKTVAEGRRISVSKSCENPNCIEISDCCKHLKLPSAVEIDKAYPRDFMQVGRVRVQLKREDGTLLNPAITSRKHLMQKIAELVPRHPERVKKQEAQKAKKQEPQATTSTSGTSSKSGKGGKKKR” the protein production was “failed”.
With “VAPLGLSVPSDVELPPTAKMHAIIERTASFVCRQGAQFEIMLKAKQARNSQFDFLRFDHYLNPYYKFIQKAMKEGRYTVLAENKSDEKKKSGVS” the protein production was “not failed”.
For “MSVNTNEGSKNLWKDLPLELLSSVMTFLEIKDNVRASVVCKSWFEAAVSVRVIDKSPWLMYFPETKNTYDFYDPSNCKKYTMELPKSLVGFIVRYSKDGWLLMSQEDSSHFVLFNPFTMDVVALPFLHLFTYYQLVGFSSAPTSSECVVFTIKDYDPGHVTIRTWSPGQTMWTSMQVESQFLDVDHNNVVFSNGVFYCLNQRNHVAVFDPSLRTWNVLDVPPPRCPDDKSWNEGKFMVGYKGDILVIRTYENKDPLVFKLDLTRGIWEEKDTLGSLTIFVSRKSCESRTYVKDGMLRNSVYFPELCYNEKQSVVYSFDEGRYHLREHDLDWGKQLSSDNIWIEPPKNAFELV”, the protein production was “failed”.
For “MKILTVNVHAWLEENQMEKIDILARTIAEKQYDVIAMQEVNQLMNNKIIFDDIREENYAWVLLETLQKYTDTDYYLHWSNSHIGFGKYNEGVAVITRHKIKAEDEFYCTFAQSVRTISARRIVSITINYEGQDIEFYSCHMNLPNCETEDMGKNIQTILNRTQNSNLKILMGDFNTDAIGNVAAYENILSQGLFDTYVMAEKKDDGITVDKSIHGWDNDKAKKRLDYIFSNKELKVKESKVIFNNKNKEIVSDHFGIEVKIEF”, the protein production was “not failed”.
For “MPAAHPSAISFARQTKAIAMAAKIVPAPDYEDRVRASFARQQAMATIGAELTLVTPGIIEIEMPYSAALTQQHGFLHAGVISTALDSACGYAAFSLMPENSGVLTIEFKVNLLAPGRGERFLFRGSVTKPGRTIIVADGQAYAFAADGEAKLIATMTGTMMTVVGRDGIAG”, the protein production was “failed”.
In the case of “TAALSGAANLGAPLSNDFCTISLSDKWRGWDEIEEKLRAAAISGFVVVLYNCWRDYERAVDVLREERADDVPAAIVNDSGRGEAGRNLDDETETITTLGELPEHDDKVGGMGSSIVVGTHETEV”, the protein production is reported as “failed”.
In the case of “MKTFIWNSNYETGVAKVDDQHQCLVEIINEYSHLLANNTTTETDIELTLNKLIDYTKFHFKDEEQLMYSVGLDTRHITHHEKLHRDILDEISTLLSDQVTDKLSIARYILDLIIHWLVYHILGTDMNMAKLEHHHHHH”, the protein production is reported as “failed”.
In the case of “ALSGSSGYKFGVLAKIVNYMKTRHQRGDTHPLTLDEILDETQHLDIGLKQKQWLMTEALVNNPKIEVIDGKYAFKPKYNVR”, the protein production is reported as “not failed”.
In the case of “MKWLKHFQSLHTKLVIVYVLLIIIGMQIIGLYFTNSLEKELTQTFKNNISQYAKQIEINIEKVYDEDNAINAQKEVQNLLNEYANRQEIEEIRFIDKDQIIMATSKQSTRSLINQKANDNSIQKALSLGEINSHTVLKDYGNGKQRVWVYNLPVKTSNDGTIGDVYIEADINDVYNQLSNINQIFIVGTGISLLITVILGFFIARTITKPITDMRNQTVEMSKGNYTQRVKIYGNDEIGELALAFNNLSKRVQEAQANTESEKRRLDSVITHMSDGIIATDRRGRVRIVNDMALTMMGTMKEDIIGDHMLKVLKLEEDFSLDEIQENNDSFLLDINENEGIIARVNFSTIVQETGFVTGYIAVLHDVTEQQQVERERREFVANVSHELRTPLTSMNSYIEALESGAWKDGELAPQFLSVTREETERMIRLVNDLLQLSKMDNESEQITKEIVDFNMFINKIINRHEMSAKDTTFVREVPTETIFTEIDPDKMTQVFDNVITNAMKYSRGDKRVEFHVKQNALYNRMTIRVKDNGIGIPINKVDKIFDRFYRVDKARTRKMGGTGLGLAISKEIVEAHNGRIWANSVEGQGTSIFITLPCEVLEDGDWDAE”, the protein production is reported as “failed”.
For “MNNIILMPILIPFLGAITLMLLPKRVIVQRVFALIFSGILVVATIGLVFYIRENGITTVNIGNWAAPFGITMVGDMLAVLLTATTSIVLFCVILYSFYTIGKPREKFLYYPAILFMIVGVNGSFLTGDIFNMFVFFEVMLMASYVLLVIGGTQVQLKATIKYLLINVVGSGFFVVAIALLYSMIGTLNMADISQKITDLNGANTGMISIVAVLFLFVFGLKAGLFPLYFWLPGSYFAPPIPVLALFGGLLTKVGVYAIIRTYTLFFSSLTDFVVPLLGILAIVTIILGVIGAISYYDMKTIVIYNIMIAIGVILFSVSIMTRESMTGAVFYLIHDMIIKAALFLIVGIVMAITGYSSVKKFSGLMSVKPSLGWIFFIATLGLAGIPPLSGFIGKLLIVEGAFSAGQMVGGIIILLSSLFVLMSLIKVFTKGFWGEKKGVFNLQIPYKKMLVPVVILLAISIGYGVFSNAIYPFIEQAVDPLVDPSVYIHAVIKE”, the protein production was “failed”.
With “MKKRILSAVLVSGVTLGAATTVGAEDLSTKIAKQDSIISNLTTEQKAAQNQVSALQAQVSSLQSEQDKLTARNTELEALSKRFEQEIKALTSQIVARNEKLKNQARSAYKNNETSGYINALLNSKSISDVVNRLVAINRAVSANAKLLEQQKADKVSLEEKQAANQTAINTIAANMAMAEENQNTLRTQQANLEAATANLALQLASATEDKANLVAQKEAAEKAAAEALAQEQAAKVKAQEQAAQQAASVEAAKSAITPAPQATPAAQSSNAIEPAALTAPAAPSARPQTSYDSSNTYPVGQCTWGAKSLAPWAGNNWGNGGQWAYSAQAAGYRTGSTPMVGAIAVWNDGGYGHVAVVVEVQSASSIRVMESNYSGRQYIADHRGWFNPTGVTFIYPHLEHHHHHH” the protein production was “failed”.
With “MFLVLCSVMIFIGFLLQIYVWPRIPKSIFKYRGLVLSISLIILIFVVRIPLEITALTLPFYLMMFFGLFLFWKDRKL” the protein production was “failed”.
With “MAKAAKRFRTPSTTRVLYVRHAHAHGRQTWGGDDNKRPLDKKGRRQAEMLVPMLLPFKPTAIYSAVPDRCQATALPLADELGLDVSVNRLFGDDAWETDPEACKKRFTDVVAQGGVPMIVGQGDIIPEMIKWFSENGTLPIDEKIKAKKGSVWVLSFHDGVFTGADYLEHHHHHH” the protein production was “failed”.
In the case of “MDYFRLAEKFLREMHAKYMKRVSRPGNTPRPWFDFSEERLLSRLFEEMDELREAVEKEDWENLRDELLDVANFCMYLWGKLSVKNIYDKGEEQ”, the protein production is reported as “not failed”.
For “MAVVSHGGFRAAARALDVSQGGLTKSIAALEQEYGVDLIERSAKGVLLTPKGAAFVPLARAIVEEAERAEGWLRAQSGELSTSVSLGVSIEPSIRLAPAVLRDFRKALPDTSVHLTQGVALDLLGALRENRIELAVIRLPRNFDSSDLKVQRLYQSEPVIVGRAGHPGAGAASLRELVKYDWVVVGDTSRQGAMNDDSIWELFDREGLGRPRFAAVCNSLLSIVAMLMESDALARVPRALLDHSLARRNLIPIPVAEPPVPYWIATVHKASRRLSPEAQTLNAMLSSYARISGALSPERRPGEP”, the protein production was “failed”.
